“Also recorded” adds a separate entry of the source.
How the values were obtained:
[1] = tested on: mice; test: Three-chamber sociability assay; assay type: in vivo, mouse; settings: for social deficits / social behavior / social preference / social deficits: Ifng−/− mice; for social deficits / social behavior: diazepam 1.25 mg/kg i.p. 30 minutes prior to testing; for social preference / social deficits: single CSF (i.c.m.) injection of IFN-γ 20 ng, tested 24 hours post-injection
Procedure: The three-chamber sociability test was conducted as previously described^31. Briefly, mice were transported to the testing room and habituated for at least one hour. The room was maintained in dim light and a white noise generator used to mitigate any unforeseen noises. Test boxes were fabricated, in-house, by a machine shop. Test mice were placed in the center chamber with the two outer chambers containing empty wire cages (Spectrum Diversified Designs) and allowed to explore for ten minutes (habituation phase). After the habituation phase, mice were return to the center chamber. A novel mouse (an 8-10 week old male C57BL/6J˜18-22 g) was placed under one cup and an object placed under the other. Prior to testing, the novel mouse was habituated to the cup by being placed under the cup for 10 minutes, 3 times a day for 5 days. Mice were allowed to explore for an additional ten minutes (social phase). A video tracking system (CleverSys) was used to quantify the time spent around each target. For 3-chamber experiments comparing social behavior between wild-type and SCID mice, data collected using males and females were combined because no significant effects were found between genders.
A rat monoclonal antibody to murine VLA4 (clone PS/2) was affinity purified from hybridoma supernatants and was used with the kind permission of Dr. Klaus Ley (La Jolla Institute of Allergy and Immunology, San Diego, Calif.). Mice were given two separate injections (i.p.; 0.2 mg in saline per mouse), four days apart, of either anti-VLA4 or rat anti-HRP for control (clone HRPN; BioXcell), then tested twenty-four hours post final injection.
(§1) Mice were anaesthetized with a ketamine/xylazine [ketamine (100 mg/kg) and xylazine (10 mg/kg)] injection (i.p.) or isoflurane (2%), then placed into a stereotaxic frame with the head at an approximately 45° angle. The skin above cisterna magna was cleaned and sanitize before a 1 cm incision was made. The underlying muscles were separated with forceps, retracted, and a small Hamilton syringe (33 G) was used to slowly inject 1 uL of saline or IFN-γ (20 ng; eBioscience) into the cisterna magna (i.c.m.). After injection the syringe was held in place for 5 minutes to avoid back-flow of CSF. After the syringe was removed, muscles were put back in place and skin was sutured. Mice were placed on a heating pad and given ketoprofen and baytril for recovery.
Diazepam (1.25 mg/kg) was delivered i.p. for 30 minutes prior to testing for social behavior.

[2] = tested on: Ifng−/− mice; test: Resting-state fMRI functional connectivity of PFC/insular nodes; assay type: in vivo, mouse; settings: single injection of recombinant IFN-γ into the CSF
Source text: The protocol for rsfMRI was adapted from Zhan et al.^32. Mice were maintained under light anesthesia with (1-1.25%) isoflurane and images were acquired on a 7.0 Tesla MRI Clinscan system (Bruker, Etlingen, Germany) using a 30-mm inner-diameter mouse whole-body radiofrequency coil. High-resolution structural images were acquired by collecting 16×0.7 mm thick coronal slices using TR/TE 5,500/65 ms and an […]. A BOLD rsfMRI time series of 16×0.7 mm thick coronal slices were collected using TR/TE 4,000/17 ms and a 60o flip angle. For analysis, a structural template^33 was custom labeled using “The Mouse Brain” by Paxinos and Franklin as reference (FIGS. 6A-6C). The non-rigid transformation between the template and each individual mouse was estimated using the open source Advanced Normalization Tools (ANTs) package^34 that was then used to propagate the regional labels to each subject. […] The correlation matrix was determined from the clean fMRI data using the regions labels. […] When comparing networks from multiple sample groups, the threshold was determined by calculating the maximum threshold that leaves one of the networks connected (i.e., it is possible to reach any node in the network from any other node). […]

[3] = tested on: layer 2/3 prefrontal cortical neurons; test: Whole-cell patch-clamp of tonic inhibitory currents in acute brain slices; assay type: cell-based, mouse
Procedure: Visualized whole-cell patch-clamp recordings were performed on layer 2/3 prefrontal cortical neurons prepared from acute brain slices (adult) using the protective recovery method^42. Recordings were performed in 34° C. artificial cerebrospinal fluid (ACSF) containing (in mM) 131.5 NaCl, 25 NaHCO3, 12 D-glucose, 2.5 KCl, 1.25 NaH2PO4, 2 CaCl2, and 1 MgCl2. ACSF also contained 3 mM kynurenic acid to block synaptic excitation and […] NO-711 to enhance tonic inhibition^43. Slices were incubated in this ACSF for 5-10 minutes prior to placement in the recording chamber. The patch pipette solution with elevated chloride contained (in mM) 140 CsCl, 4 NaCl, 1 MgCl2, 10 HEPES, 0.05 EGTA, 2 Mg-ATP, and 0.4 Mg-GTP^43. Once recordings equilibrated, baseline holding current in ACSF was measured for 3.5 minutes, after which ACSF containing IFN-γ (20 pg/mL) was applied for 8.5 minutes and then washed. Data presented show the mean holding current during the last minute of control (ACSF) and drug (ACSF+IFN-γ) conditions.

[4] = tested on: mice; test: PTZ induced seizures; assay type: in vivo, mouse; settings: IFN-γ i.c.m. 24 hours prior to PTZ 40 mg/kg i.p.
Procedure: IFN-γ was injected (i.c.m.) into the CSF through the cisterna magna (i.c.m.), as described above, 24 hours prior to inducing seizures. Control mice were injected with the same volume of saline. To induce seizures, mice were injected with PTZ (40 mg/kg; i.p.). After injection, mice were placed into an empty housing cage and recorded for video analysis. Seizures were analyzed by a blinded observer using a behavior scoring system previously published^41.

[5] = tested on: layer I neocortical neurons; test: c-fos immunohistochemistry in PFC after CSF injection; assay type: in vivo, mouse; settings: IFN-γ injected into the CSF (i.c.m.) 2 hours prior to sacrificing
Procedure: Mice were sacrificed under Euthasol then transcardially perfused with PBS with heparin. Brains were removed and drop fixed in 4% PFA for 48 hours. After fixation, brains were washed with PBS, cryoprotected with 30% sucrose, then frozen in O.C.T. compound (Sakura Finetek) and sliced ([…]) with a cryostat (Leica). Free-floating sections were maintained in PBS+Azide (0.02%) until further processing. Immunohistochemistry for c-fos (1:1000 dilution; Millipore) on free-floating sections was performed as previously described^39.
as §1

Molecule | social deficits / social behavior [1] | social deficits / social behavior ([1]; listed as Diazepam) | social deficits ([1]; Ifngr1−/− mice, IFN-γ injected into the CSF) | social preference / social deficits [1] | social preference / social deficits ([1]; listed as recombinant IFN-γ) | hyper-connectivity in the PFC (connections of local PFC/insular nodes) ([2]; Jennrich test P=0.02) | hyper-connectivity in the PFC (connections of local PFC/insular nodes) ([2]; Jennrich test P=0.02, listed as recombinant IFN-γ) | tonic inhibition ([3]; VgatCre::Ifngr1fl/fl line, Cre− mice) | tonic inhibitory current ([3]; VgatCre::Ifngr1 fl/fl mice (IFN-γ receptor deleted from inhibitory neurons)) | tonic GABAergic inhibitory current (holding current) ([3]; slices from wild-type mice, IFN-γ 20 pg/mL in ACSF for 8.5 minutes) | latency to reach each seizure stage / seizure onset [4] | maximum severity of seizures [4] | susceptibility to PTZ induced seizures [4] | c-fos+ cells in layer I of the PFC [5] | c-fos+ cells in layer I of the PFC ([5]; listed as recombinant IFN-γ)
CN1C(=O)CN=C(c2ccccc2)c2cc(Cl)ccc21 [diazepam, reference compound] | rescued social deficits | successfully rescued social behavior | – | – | – | – | – | – | – | – | – | – | – | – | –
IFN-γ: recombinant interferon-gamma cytokine (eBioscience), injected into the CSF via cisterna magna (protein, UniProt P01580 23-155, looked up) Interferon gamma: HGTVIESLESLNNYFNSSGIDVEEKSLFLDIWRNWQKDGDMKILQSQIISFYLRLFEVLKDNQAISNNISVIESHLITTFFSNSKAKKDAFMSIAKFEVNNPQVQRQAFNELIRVVHQLLPESSLRKRKRSRC | – | – | not rescued | sufficient to rescue social deficits | sufficient to restore their social preference | connections were reduced | reduce overall hyper-connectivity in the PFC | increased tonic inhibition | prevented IFN-γ from augmenting tonic inhibitory current | increases tonic GABAergic inhibitory current; also recorded: augmented tonic current | increased latency to reach each seizure stage; also recorded: delayed seizure onset | reduced the maximum severity of seizures; also recorded: lowered seizure severity | less susceptible to PTZ induced seizures | increased the number of c-fos+ cells in Layer I of the PFC | activated layer I neocortical neurons

Source: patent US11389509B1, “Methods for treatment of social dysfunction neurological disorders and seizures” (University of Virginia Patent Foundation, priority 2017, dated 2022)
